The values that follow are results of earlier work, collected in paper doi:10.1101/2025.11.26.690829.

The target in the data set is TDP-43 NTD (Homo sapiens) (UniProt Q13148).

Usually Kd stands for a measure of binding affinity in units of concentration. On to TDP-43 NTD (from UniProt Q13148), for which the Kd was 2 µM.
